Columns and labels:
Details in all cases: glycan lost; control: WT mice
[1] = TRAP staining, 6-month-old mice
[2] = X-ray radiography of long bones
[3] = three-point bending of femur and tibia
[4] = H&E histology of long bone
[5] = immunohistochemistry, anti-DMP1-N 9B6.3, cortical bone

B1: Dentin matrix protein 1 (DMP1): S89G (protein)
parent chain: MKTVILLVFLWGLSCALPVARYHNTESESSEERTGDLAGSPPPPTNSESSEESQASPEGQANSDHTDSSESGEELGYDRGQYRPAGGLSKSTGTGADKEDDEDDSGDDTFGDEDNDLGPEEGQWGGPSKLDSDEDSTDTTQSSEDSTSQENSAQDTPSDSKDHDSEDEADSRPEAGDSTQDSESEEQRVGGGSEGESSHGDGSEFDDEGMQSDDPESTRSDRGHARMSSAGIRSEESKGDHEPTSTQDSDDSQSVEFSSRKSFRRSHVSEEDYRGELTDSNSRETQSDSTEDTASKEESRSESQEDTAESQSQEDSPEGQDPSSESSEEAGEPSQESSSESQEGVTSESRGDNPDNTSQAGDQEDSESSEEDSLNTFSSSESQSTEEQADSESNESLSLSEESQESAQDGDSSSQEGLQSQSASTESRSQESQSEQDSRSEEDSDSQDSSRSKEESNSTGSASSSEEDIRPKNMEADSRKLIVDAYHNKPIGDQDDNDCQDGY
decreases: other: osteoclast number in bone [1] | other: radiographic bone density [2] | other: bone mechanical strength [3] | other: articular cartilage thickness [4] | expression_or_secretion [5]
